The target of the experiment is T1, Human recombinant HDAC3 (human, UniProt O15379 1-428).
T1 construct: human recombinant HDAC3 (Biomol); No catalogue number, host or tag is printed for the bought protein; also called recombinant human HDAC3; source: bought: Biomol
In words: pull-down; recombinant HDAC3 (8 ug) incubated with recombinant H1.3 (4 ug), overnight at 4 C; pulled down with anti-HDAC3 antibody and protein A/G-agarose; SDS-PAGE, Coomassie staining. To be noted: both partners purified.

T1 sequence (O15379 whole entry): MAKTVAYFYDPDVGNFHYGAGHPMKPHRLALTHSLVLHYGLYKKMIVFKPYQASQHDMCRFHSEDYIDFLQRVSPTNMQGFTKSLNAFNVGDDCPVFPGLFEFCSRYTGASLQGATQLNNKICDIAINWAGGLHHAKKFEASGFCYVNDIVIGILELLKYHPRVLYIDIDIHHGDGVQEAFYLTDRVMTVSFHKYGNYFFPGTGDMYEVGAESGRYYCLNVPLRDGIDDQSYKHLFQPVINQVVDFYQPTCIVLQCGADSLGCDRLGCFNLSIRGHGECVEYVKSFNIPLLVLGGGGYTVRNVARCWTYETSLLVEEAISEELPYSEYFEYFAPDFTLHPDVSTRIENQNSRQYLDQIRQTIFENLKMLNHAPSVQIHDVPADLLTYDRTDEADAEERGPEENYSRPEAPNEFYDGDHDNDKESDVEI

B1: Human recombinant H1.3 (natural protein, UniProt P16402 1-221, looked up)
chain: MSETAPLAPTIPAPAEKTPVKKKAKKAGATAGKRKASGPPVSELITKAVAASKERSGVSLAALKKALAAAGYDVEKNNSRIKLGLKSLVSKGTLVQTKGTGASGSFKLNKKAASGEGKPKAKKAGAAKPRKPAGAAKKPKKVAGAATPKKSIKKTPKKVKKPATAAGTKKVAKSAKKVKTPQPKKAAKSPAKAKAPKPKAAKPKSGKPKVTKAKKAAPKKK
notes: human recombinant histone H1.3 (Alexis Biochemicals); No catalogue number, host or tag is printed for the bought protein; also called recombinant human histone H1.3; source: bought: Alexis Biochemicals
On to B1, for which the binding result is “binds”.

For the origin of these results see article PMC4751364, “Mitotic Activation of a Novel Histone Deacetylase 3-Linker Histone H1.3 Protein Complex by Protein Kinase CK2*” (The Journal of Biological Chemistry, 2015).
